Data from patent US20070249813A1.

Legend:
[1] = biological target: biotinylated recombinant human TNFα (human) (UniProt P01375); assay: SPR (BIAcore), [Ab] 100 nM over immobilized biotinylated rhTNFα
[2] = biological target: biotinylated recombinant human TNFα (human) (UniProt P01375); assay: SPR (BIAcore), [Ab] 50 nM over immobilized biotinylated rhTNFα
[3] = biological target: biotinylated recombinant human TNFα (human) (UniProt P01375); assay: SPR (BIAcore), [Ab] 25 nM over immobilized biotinylated rhTNFα
[4] = biological target: biotinylated recombinant human TNFα (human) (UniProt P01375); assay: SPR (BIAcore), [Ab] 400 nM over immobilized biotinylated rhTNFα
[5] = biological target: biotinylated recombinant human TNFα (human) (UniProt P01375); assay: SPR (BIAcore), [Ab] 6 nM over immobilized biotinylated rhTNFα
[6] = biological target: biotinylated recombinant human TNFα (human) (UniProt P01375); assay: SPR (BIAcore), [Ab] 13 nM over immobilized biotinylated rhTNFα
[7] = biological target: biotinylated recombinant human TNFα (human) (UniProt P01375); assay: SPR (BIAcore), [Ab] 200 nM over immobilized biotinylated rhTNFα
[8] = biological target: recombinant human TNFα (human) (UniProt P01375); assay: cell-based or functional assay
[9] = biological target: biotinylated recombinant human TNFα (human) (UniProt P01375); assay: SPR (BIAcore), [Ab] 3 nM over immobilized biotinylated rhTNFα
[10] = biological target: biotinylated recombinant human TNFα (human) (UniProt P01375); assay: summary table of binding properties for hTNFα (assay not named there)

Sequence of biotinylated recombinant human TNFα (human) (P01375 77-233 limits assumed): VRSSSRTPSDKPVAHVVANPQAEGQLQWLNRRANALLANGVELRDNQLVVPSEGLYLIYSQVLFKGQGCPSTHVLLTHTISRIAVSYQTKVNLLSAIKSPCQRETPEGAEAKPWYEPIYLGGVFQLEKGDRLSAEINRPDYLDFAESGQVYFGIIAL
Sequence of recombinant human TNFα (human) (P01375 77-233 limits assumed): as above

Ab, bound, RUs [1]: 1140 RU
Ab, bound, RUs [2]: 1110 RU
Ab, bound, RUs [3]: 957 RU
Ab, bound, RUs [4]: 881 RU
Ab, bound, RUs [5]: 433 RU
Ab, bound, RUs [6]: 708 RU
Ab, bound, RUs [7]: 1080 RU
Ab, bound, RUs [9]: 231 RU
Kd [10]: 0.46 nM
Stoichiometry [10]: 1.4
Substance: MAK 195 F(ab′)2 fragment (antibody)
IC50, neutralization of TNFα-induced L929 cytotoxicity [8]: 0.062 nM
